Results: the supplement of paper PMC10126150
± gives the standard deviation of the averaged measurements.

Tested on: ATP
Test: switch fluorescence ratio, 500 uM ATP over buffer (Cy3 cluster intensity, sum of 5 cycles each) (fold (ratio)); higher = stronger signal-on switching upon ATP binding; sequences stand for … in TCGTCGGCAGCGTCAGATGTGTATAAGAGACAGTTTTTTTTTTTTTTTTTTTTTTTTT…TC
Settings: aptamer strand: ATP DNA aptamer (quencher-CACCTGGGGGAGTATTGCGGAGGAAGG + anchor), 100 nM annealed; ATP concentration: 500 uM
How it was run: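 The fluorescence ratio divides summed target-cycle Cy3 intensity by summed buffer-cycle Cy3 intensity for each cluster and is averaged per switch-domain sequence. Cy3-labelled switching-strand clusters on a modified Illumina MiSeq flow-cell were annealed to 100 nM quencher-labelled ATP aptamer, then imaged in selection buffer and again after 15 min with 500 uM ATP at 22 °C. Five such cycles were run, with NaOH stripping and re-annealing between them, and clusters outside 100-1000 RFU were excluded.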
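Note: ATP exposure 15 min at 22 °C before imaging.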

| Sequence | switch fluorescence ratio |
| --- | --- |
| CGCGTAGAC | 1.66 ± 0.14 |
| GCTAGGAAGT | 0.983 ± 0.022 |
| TATTGTATTC | 1 ± 0.013 |
| TTAGCAGGGA | 1 ± 0.019 |
| TTTTGATATA | 0.9989 ± 0.0085 |
| TGCGAGGGTT | 1.01 ± 0.093 |
| TGGGTAGGGG | 0.985 ± 0.025 |
| CTATGAATTA | 0.984 ± 0.024 |
| ATGAAAAGTT | 0.993 ± 0.011 |
| GCTAACGGCA | 0.994 ± 0.03 |
| ATTAGGGTAA | 1.02 ± 0.026 |
| GAATTGGGAG | 0.998 ± 0.02 |
| AGGTGGGCGC | 0.94 ± 0.07 |
| ATAGTGGGAG | 0.992 ± 0.04 |
| GTAATGAGCG | 0.998 ± 0.044 |
| ATACGAGAAT | 1 ± 0.023 |
| AGGGGGGCAC | 0.984 ± 0.025 |
| GTTGGAGTGC | 0.9817 ± 0.0017 |
| GAATTGGTTT | 0.999 ± 0.017 |
| TGAAAAGGGC | 0.9875 ± 0.0095 |
| GTAAGTGAAG | 1.05 ± 0.014 |
| CCCTGAGGGA | 1.18 ± 0.086 |
| ACAGGTTAAT | 1.02 ± 0.02 |

| Sequence | switch fluorescence ratio |
| --- | --- |
| TCTTTTTTGG | 1 ± 0.042 |
| AGGAGAGGAT | 1.14 ± 0.28 |
| TCATTGTGAG | 1 ± 0.038 |
| TGAAATGTTT | 0.999 ± 0.031 |
| GTATTTACTC | 1.04 ± 0.034 |
| GAATACGGGG | 1.06 ± 0.044 |
| TTGAATCGAC | 1.08 ± 0.042 |
| AAGCGGGGTG | 1.06 ± 0.063 |
| TTAAAAATTG | 0.957 ± 0.016 |
| CCAAGCTTGT | 1 ± 0.041 |
| ACGAAAATGG | 1.05 ± 0.062 |
| TTGACGAATC | 1.067 ± 0.002 |
| CGGTATGAGG | 0.9 ± 0.11 |
| TTTTGTTAAA | 1.01 ± 0.028 |
| CGGATATGGC | 1.03 ± 0.1 |
| GTTTGTCAGC | 1.01 ± 0.024 |
| TGCGGTAAA | 1.09 ± 0.14 |
| TCGGTGATGG | 0.988 ± 0.021 |
| GCTGTACGCT | 0.9539 ± 0.0027 |
| GGGATATGTT | 0.9921 ± 0.0071 |
| CATTCGTCGA | 1.2 ± 0.04 |
| CAGGTGAGTT | 1.34 ± 0.32 |
| ATGCAAAGGA | 1 ± 0.043 |

| Sequence | switch fluorescence ratio |
| --- | --- |
| TTAGGTAATA | 1 ± 0.022 |
| TAGGGTGCTT | 1.04 ± 0.036 |
| TGGTGCACC | 0.983 ± 0.042 |
| CCCGGTTTTT | 1.06 ± 0.022 |
| AGGGTGGAAG | 0.993 ± 0.038 |
| CCGTTCTTAC | 2.84 ± 1.1 |
| ATGGTTTTTG | 1.01 ± 0.013 |
| CAATACTCAA | 2.14 ± 0.023 |
| TCGTAGAGTG | 0.954 ± 0.026 |
| ATACGGGAGT | 1 ± 0.0018 |
| GGAGTACAAA | 1.03 ± 0.033 |
| GGGAGGAGCA | 1.01 ± 0.073 |
| CGTCGACGGG | 1.02 ± 0.054 |
| TAGGCACCTG | 1.0679 ± 0.00092 |
| GACTTGTGTA | 0.994 ± 0.016 |
| TCGCTTAATT | 1.02 ± 0.032 |
| GAGTATTTAG | 0.9801 ± 0.0093 |
| GATTATGGCA | 0.9752 ± 0.0066 |
| AAAGGATGTT | 0.995 ± 0.041 |
| GGGGGCAAAA | 1.03 ± 0.025 |
| TTTCGTACGG | 1.03 ± 0.087 |
| TGCCGCAGGT | 1.01 ± 0.043 |
| GTTGGGGATT | 0.977 ± 0.016 |

| Sequence | switch fluorescence ratio |
| --- | --- |
| AGGAAAGATT | 1.01 ± 0.028 |
| ATATGGGGGC | 0.972 ± 0.059 |
| TCCGAGGCCA | 3.91 ± 3.2 |
| AAGTTGATAA | 1 ± 0.035 |
| AAACGGCATC | 1.073 ± 0.0074 |
| ACTGTGGGGG | 1.01 ± 0.022 |
| CATCTGGGGG | 1.04 ± 0.054 |
| TAAGACGGTT | 1.01 ± 0.015 |
| CTAACGCCTG | 1.03 ± 0.07 |
| CTGCGTCTAT | 1.08 ± 0.025 |
| CGGTTATAGG | 0.967 ± 0.012 |
| GGCCGAAGGG | 1.03 ± 0.066 |
| TGCGCCATTT | 1.13 ± 0.26 |
| TTTTTATACT | 1.02 ± 0.027 |
| TGTTGGGAAC | 1.07 ± 0.12 |
| TAGTTTGGGG | 0.999 ± 0.032 |
| GCTATTTAGG | 1 ± 0.024 |
| TAAGTGGGTG | 1.01 ± 0.027 |
| CGGTGACTGC | 1.02 ± 0.099 |
| TTATTGGGAT | 0.981 ± 0.033 |
| CGATGGTGAG | 1 ± 0.047 |
| CATGATTTGG | 0.982 ± 0.028 |
| CGAGTACTGG | 1.03 ± 0.016 |

| Sequence | switch fluorescence ratio |
| --- | --- |
| GGTGATGTGG | 0.986 ± 0.022 |
| TTGTTTTTGC | 0.9959 ± 0.0089 |
| TTGGGGAAAG | 0.986 ± 0.038 |
| TCTTGGTGT | 0.9898 ± 0.0088 |
| GGTCGTCTTG | 0.996 ± 0.04 |
| CGCGCAGGGA | 1.03 ± 0.013 |
| AAGGGGGTAA | 0.977 ± 0.012 |
| TTCGAAGATT | 1 ± 0.051 |
| TATGGGTAGC | 0.986 ± 0.019 |
| TTGGGGCCCG | 1.01 ± 0.082 |
| TTAATATAAG | 1.02 ± 0.021 |
| GAAAAAGAGG | 0.985 ± 0.019 |
| CGTAGGGGGA | 0.984 ± 0.015 |
| AAATGAGTTT | 1.02 ± 0.013 |
| TTGGAGGAAC | 1.07 ± 0.12 |
| GACGACTCGG | 0.987 ± 0.026 |
| CATGCAAATA | 1.07 ± 0.034 |
| TTGGCCGCGA | 2.1 ± 0.066 |
| GATTACTACC | 1.21 ± 0.04 |
| AAGGATTAGA | 0.987 ± 0.02 |
| TGCCCGGGGA | 1 ± 0.037 |
| GTGTTAATTA | 0.989 ± 0.021 |
| TTCAGAGTTT | 0.978 ± 0.014 |

| Sequence | switch fluorescence ratio |
| --- | --- |
| CTATACCGTT | 1.003 ± 0.0048 |
| TATTGGTCTA | 1.04 ± 0.087 |
| GGCTTTGAGG | 1.01 ± 0.019 |
| GTTGGTAGCC | 0.978 ± 0.022 |
| TTGACCTGTG | 1.02 ± 0.013 |
| CCGGACGCGT | 1.52 ± 0.26 |
| TACTTTGGGA | 0.98 ± 0.043 |
| CGTATTATGG | 0.998 ± 0.05 |
| TTTATTGGTT | 1.07 ± 0.1 |
| AGGGCGGAGT | 0.994 ± 0.022 |
| ATCTAATAGG | 0.959 ± 0.018 |
| GTCTGAACGG | 0.9762 ± 0.0081 |
| ATGCTTTGGG | 1.036 ± 0.0061 |
| TGGGACCGGC | 0.98 ± 0.021 |
| ATTTCAAAAG | 0.974 ± 0.023 |
| GCGTAAGTG | 0.986 ± 0.041 |
| ATATATTGTA | 1.001 ± 0.0059 |
| AAAAAGCTTT | 1.026 ± 0.0047 |
| TTTATAGTCT | 0.99 ± 0.021 |
| CAGCACGCGC | 1.06 ± 0.038 |
| GTGGCAGGGG | 1.36 ± 0.63 |
| CTGGTTCTTT | 0.9898 ± 0.0082 |
| TTGTGATAGC | 1.05 ± 0.075 |

| Sequence | switch fluorescence ratio |
| --- | --- |
| AGCTGCATG | 0.997 ± 0.024 |
| ACGTGGGGAG | 1.08 ± 0.022 |
| ATATTATGGA | 1 ± 0.02 |
| TTTCTTGGGA | 1 ± 0.059 |
| GGAGTATAAG | 0.957 ± 0.012 |
| AAGCTTTACG | 1.052 ± 0.0079 |
| CGGAAGCTCT | 1.036 ± 0.0028 |
| GGGAGGGTTG | 0.981 ± 0.031 |
| GGTTCACGGC | 1.03 ± 0.015 |
| AAGTAGATGG | 0.991 ± 0.029 |
| CGGTTGAATG | 0.98841 ± 0.00073 |
| GAGGGTGTAA | 1.001 ± 0.01 |
| TTTTCTACGG | 0.989 ± 0.02 |
| GGGGACGTAT | 1.01 ± 0.019 |
| TGGTTGACGA | 1.01 ± 0.14 |
| TTTTTCAGCA | 1.04 ± 0.029 |
| GGGTTTATGA | 0.98 ± 0.04 |
| AGTTAACTCA | 1.013 ± 0.0056 |
| ATCGGGCGTA | 1.01 ± 0.044 |
